Source: publication PMC8442604

Tests used:
[1] = biological target: SARS-CoV-2 RBD protein (321–591) (SARS-CoV-2) (UniProt P0DTC2)
[2] = biological target: SARS-CoV-2 RBD protein (321–591) (SARS-CoV-2) (UniProt P0DTC2); test: SPR

- other [1]: 37.5 µg/mL
- Kd [2]: 810 pM
Substance: P2B-2F6 (antibody)
